Earlier results in patent US7468440B2, “Malonamides and malonamide derivatives as modulators of chemokine receptor activity” (Bristol-Myers Squibb Company, priority 2003, dated 2008).

Tested on: MCP-1 expression
Settings: human multiple sclerosis, effective therapy

B1: interferon b-1b: interferon b-1b, effective therapy in human multiple sclerosis (protein, UniProt P01574 22-187, looked up, variant C17S)
Interferon beta: MSYNLLGFLQRSSNFQSQKLLWQLNGRLEYCLKDRMNFDIPEEIKQLQQFQKEDAALTIYEMLQNIFAIFRQDSSSTGWNETIVENLLANVYHQINHLKTVLEEKLEKEDFTRGKLMSSLHLKRYYGRILHYLKAKEYSHCAWTIVRVEILRNFYFINRLTGYLRN
modifications: interferon beta-1b
effect on MCP-1 expression in peripheral blood mononuclear cells: reduces MCP-1 expression
